Data reported in publication PMC9744887, “Structural mechanism of signal transduction in a phytochrome histidine kinase” (Nature Communications, 2022).

B1: DrBphP-DrRR fusion protein (Deinococcus radiodurans phytochrome fused to its response regulator by a 12 amino acid tether) (other)
chain: MSRDPLPFFPPLYLGGPEITTENCEREPIHIPGSIQPHGALLTADGHSGEVLQMSLNAATFLGQEPTVLRGQTLAALLPEQWPALQAALPPGCPDALQYRATLDWPAAGHLSLTVHRVGELLILEFEPTEAWDSTGPHALRNAMFALESAPNLRALAEVATQTVRELTGFDRVMLYKFAPDATGEVIAEARREGLHAFLGHRFPASDIPAQARALYTRHLLRLTADTRAAAVPLDPVLNPQTNAPTPLGGAVLRATSPMHMQYLRNMGVGSSLSVSVVVGGQLWGLIACHHQTPYVLPPDLRTTLEYLGRLLSLQVQVKEAADVAAFRQSLREHHARVALAAAHSLSPHDTLSDPALDLLGLMRAGGLILRFEGRWQTLGEVPPAPAVDALLAWLETQPGALVQTDALGQLWPAGADLAPSAAGLLAISVGEGWSECLVWLRPELRLEVAWGGATPDQAKDDLGPRHSFDTYLEEKRGYAEPWHPGEIEEAQDLRDTLTGALGERLSVIRDLNRALTQSNAEWRQYGFVISHHMQEPVRLISQFAELLTRQPRAQDGSPDSPQTERITGFLLRETSRLRSLTQDLHTYTALLSAPPPVRRPTPLGRVVDDVLQDLEPRIADTGASIEVAPELPVIAADAGLLRDLLLHLIGNALTFGGPEPRIAVRTERQGAGWSIAVSDQGAGIAPEYQERIFLLFQRLGSLDEALGNGLGLPLCRKIAELHGGTLTVESAPGEGSTFRCWLPDAGPLPGAADAASSAGGSAGSAGMPERASVPLRLLLVEDNAADIFLMEMALEYSSVHTELLVARDGLEALELLEQAKTGGPFPDLILLDLNMPRVDGFELLQALRADPHLAHLPAIVLTTSNDPSDVKRAYALQANSYLTKPSTLEDFLQLIERLTAYWFGTAAIPQTYQPQ
modifications: biliverdin (BV) chromophore; lysate incubated with a molar excess of biliverdin hydrochloride
notes: 938-aa construct in pET21b(+), counting the N-terminal T7-tag and the C-terminal His6-tag; Models were built up to Leu591 (Pr) and for residues 22-521 (Pfr); also called full-length DrBphP-DrRR; source: E. coli BL21 (DE3), purified (NiNTA, size-exclusion chromatography)
B2: Phytochrome from Deinococcus radiodurans (DrBphP), as the phytochrome part of the DrBphP-DrRR fusion (enzyme)
chain: MSRDPLPFFPPLYLGGPEITTENCEREPIHIPGSIQPHGALLTADGHSGEVLQMSLNAATFLGQEPTVLRGQTLAALLPEQWPALQAALPPGCPDALQYRATLDWPAAGHLSLTVHRVGELLILEFEPTEAWDSTGPHALRNAMFALESAPNLRALAEVATQTVRELTGFDRVMLYKFAPDATGEVIAEARREGLHAFLGHRFPASDIPAQARALYTRHLLRLTADTRAAAVPLDPVLNPQTNAPTPLGGAVLRATSPMHMQYLRNMGVGSSLSVSVVVGGQLWGLIACHHQTPYVLPPDLRTTLEYLGRLLSLQVQVKEAADVAAFRQSLREHHARVALAAAHSLSPHDTLSDPALDLLGLMRAGGLILRFEGRWQTLGEVPPAPAVDALLAWLETQPGALVQTDALGQLWPAGADLAPSAAGLLAISVGEGWSECLVWLRPELRLEVAWGGATPDQAKDDLGPRHSFDTYLEEKRGYAEPWHPGEIEEAQDLRDTLTGALGERLSVIRDLNRALTQSNAEWRQYGFVISHHMQEPVRLISQFAELLTRQPRAQDGSPDSPQTERITGFLLRETSRLRSLTQDLHTYTALLSAPPPVRRPTPLGRVVDDVLQDLEPRIADTGASIEVAPELPVIAADAGLLRDLLLHLIGNALTFGGPEPRIAVRTERQGAGWSIAVSDQGAGIAPEYQERIFLLFQRLGSLDEALGNGLGLPLCRKIAELHGGTLTVESAPGEGSTFRCWLPDAGPLPGAADA
modifications: biliverdin (BV) chromophore; lysate incubated with a molar excess of biliverdin hydrochloride
notes: see m1; also called full-length DrBphP; source: E. coli BL21 (DE3), purified (NiNTA, size-exclusion chromatography), as part of the fusion m1

Molecular target: the molecule itself
Test: cryo-EM structure; single-particle cryo-EM of DrBphP-DrRR in the Pr state: 780 nm far-red light on the grid; 1-1.5 mg/ml protein with 10 mM CaCl2, 10 mM MgCl2, 4 mM AMP-PNP; Vitrobot at 4 °C; no symmetry imposed

Protein | stoichiometry N | binding result
B1 | 2 | –
B2 | – | binds
